Results on two proteins are retold here after paper PMC10912226, “Filament formation drives catalysis by glutaminase enzymes important in cancer progression” (Nature Communications, 2024).

Series [1] concerns the molecule itself. As to the kind of experiment: cryo-EM structure; apo-GLS2, 5 µM, no substrate or activator; single particle, C2 symmetry; step: subunits in the tetramer.
Series [2] deals with the molecule itself. As to the kind of experiment: cryo-EM structure; GLS2 5 µM with 30 µM inhibitor 968 in 2% DMSO; 2D classification, dimer classes kept, 3.65 Å map, model not built.
Series [3] deals with the molecule itself. As to the kind of experiment: negative stain electron microscopy; glutaminase 1 µM with glutamine 20 mM and inorganic phosphate (50-200 mM), RT, 30 s to 1 min after mixing (GAC Y466W with DMSO also 30 min); step: tetramers to filament.

Residue numbers refer to the chain shown, from its start. Numbers in names are those of the source.

B1: human liver-type glutaminase GLS2, wild type, without the mitochondrial localization sequence (residue 38-602) (enzyme, UniProt Q9UI32 38-602, looked up)
chain: HHLSEAAAQGRETPHSHQPQHQDHDSSESGMLSRLGDLLFYTIAEGQERIPIHKFTTALKATGLQTSDPRLRDCMSEMHRVVQESSSGGLLDRDLFRKCVSSNIVLLTQAFRKKFVIPDFEEFTGHVDRIFEDVKELTGGKVAAYIPQLAKSNPDLWGVSLCTVDGQRHSVGHTKIPFCLQSCVKPLTYAISISTLGTDYVHKFVGKEPSGLRYNKLSLNEEGIPHNPMVNAGAIVVSSLIKMDCNKAEKFDFVLQYLNKMAGNEYMGFSNATFQSEKETGDRNYAIGYYLKEKKCFPKGVDMMAALDLYFQLCSVEVTCESGSVMAATLANGGICPITGESVLSAEAVRNTLSLMHSCGMYDFSGQFAFHVGLPAKSAVSGAILLVVPNVMGMMCLSPPLDKLGNSHRGTSFCQKLVSLFNFHNYDNLRHCARKLDPRREGAEIRNKTVVNLLFAAYSGDVSALRRFALSAMDMEQKDYDSRTALHVAAAEGHIEVVKFLIEACKVNPFAKDRWGNIPLDDAVQFNHLEVVKLLQDYQDSYTLSETQAEAAAEALSKENLESMV
notes: Tetramer in the apo state (cryo-EM); tetramers stack into filaments with glutamine and Pi; also called LGA; apo-GLS2; source: E. coli BL21 (DE3), purified (Co2+ TALON resin, HiTrap Q anion exchange, Superdex 200 SEC)
As to B1, the “stoichiometry N” value turned out to be 4 in series [1] and 2 in series [2].

B2: human GLS2 (N308A) mutant (enzyme, UniProt Q9UI32 38-602, looked up)
chain: B1 chain with N271A
notes: liver-type glutaminase GLS2, human, residues 38-602, with N308A in the tetramer-tetramer (filament) interface; source: E. coli BL21 (DE3), purified (Co2+ TALON resin, HiTrap Q anion exchange, Superdex 200 SEC)
For the protein B2, the “stoichiometry N” value in series [3] stood at 4.

The term stoichiometry N denotes the number of molecules, sites or subunits per partner or assembly.
